We go through 167 variants from the RNAGym collection of RNA variant scans (doi:10.1073/pnas.2313332121).

B1: TPR t1 (parent)
chain: GACCAAUCUGCCCUCAGAGCUCGAGAACAUCUUCGGAUGCAGAGGAGGCAGGCUUCGGUGGCGCGAUAGCGCCAACGUCCUCAACCUCCAAUGCAUCCCACCACAUGAUGAUGCCUGAAGAGCCUUGGUUUUUUG

This series covers variants of B1. Put plainly: polymerase ribozyme fitness, log enrichment relative to wild type (log ratio); higher = more active; in vitro selection for triplet polymerase activity. The method, boiled down: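 To select mutant libraries of each subunit of a heterodimeric triplet polymerase ribozyme, built by PCR and transcribed, each was annealed with a biotinylated primer, partner subunit and triplets, then incubated frozen at −7 °C. Extended constructs were gel-excised, captured on streptavidin beads and amplified by RT-PCR, in one round carried out in triplicate. Illumina sequencing of input and output libraries kept genotypes with ≥10 input reads and ≥1 read per output. Fitness is the base-2 logarithm of genotype enrichment relative to wild-type enrichment, from inverse-variance-weighted replicate averages.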
Turning to G42A A50U C73A C123U, the “polymerase ribozyme fitness (log ratio)” value was -2.52.
The same measure for C40A G48A C86A: -2.18; for C40U G42A C101G C114A: -5.28; for C40A C124U: 0.897.
As for C40A A50G G71U C85U, the “polymerase ribozyme fitness (log ratio)” value was -2.76.
Turning to C40G C94G A121U, the “polymerase ribozyme fitness (log ratio)” value was -0.125.
Take A41C G69U U92C: the “polymerase ribozyme fitness (log ratio)” value was -0.226.
Under A41C G48C U78G A111G stands -1.93; under A41G G47U G120A, -3.73.
Under C40A A84G A95C U125G U126G U129A stands -4.98.
Regarding G39U G128C, the “polymerase ribozyme fitness (log ratio)” value was -3.25.
For G42A U81A, the “polymerase ribozyme fitness (log ratio)” value was -4.25.
The same measure for G42A A91C C123U U131A: -1.71.
Consider A41U G52C C124U U131C G135U, for which the “polymerase ribozyme fitness (log ratio)” value was -1.81.
Under G42A C82U stands -1.95; under C40U C56G C72A C76A, -2.93.
The same measure for C40A G48A U55A G60A A95G G120C: -1.53; for C40U C53A G113C: -2.73.
As to G42A G69U C76A A121U, the “polymerase ribozyme fitness (log ratio)” value is -3.23.
The same measure for C40G A43U U112G A119U U126A: -4.57.
For the variant C40G C53U A121C, the “polymerase ribozyme fitness (log ratio)” value was 1.26.
Consider A41C C70A, for which the “polymerase ribozyme fitness (log ratio)” value was -3.
On to A41U C53G C62G A84U U112A, for which the “polymerase ribozyme fitness (log ratio)” value is -4.47.
The same measure for A41U G71C G117U: -5.03.
Under C40G G61U C72G G117C stands -4.91.
Under C40U G51A G60U C82G U96A U116G stands -6.02; under G42A G48C C56G C86U C101G, -4.3; under A41C G77C C82U, -1.51.
With A41U C64U C73U U106C, the “polymerase ribozyme fitness (log ratio)” value is -1.79.
Under A41G G63A A75G C85A U133A stands -3.04; under C40G G60U A68G, -4.86; under G42A G45U A68G C82U C89U A90U A118G, -4.62.
Under C40U C104A A118U stands -1.26; under C40A A43U G44C G71U C82A, -4.65; under A41U G45C C53G C79U C97U, -6.18.
For C40A A41C C49A C70U U92A C102G U109A, the “polymerase ribozyme fitness (log ratio)” value was -6.25.
Take A41U C99U C124U: the “polymerase ribozyme fitness (log ratio)” value was -5.19.
Take C40U A100G: the “polymerase ribozyme fitness (log ratio)” value was -4.16.
Under C40A G47A G63U stands -4.41; under A41G G51A A90C, -5.76.
Under C40U U92G C98U G113U G117U stands -6.95; under C40A C62A A118G, -2.61; under A41U U78C A121G U131G, -0.28.
For C40G A46U C56A U92A C114U, the “polymerase ribozyme fitness (log ratio)” value is -6.09.
For G42A G128C, the “polymerase ribozyme fitness (log ratio)” value is -4.63.
As for C40U G63C C98U A100U C101U, the “polymerase ribozyme fitness (log ratio)” value was -3.3.
The same measure for A41G G48A: -1.31; for G39U U92C C101G: -5.46; for A41C G107A: -5.61.
Under A41C G60C C101G U126G U132C stands -4.76; under G42A G61C U133A, -5.31; under C40G G61A C72U U112C, 1.6.
Under A41G A68G stands -3.96; under A41U G48U C76A, -1.72.
Turning to A41U G60U, the “polymerase ribozyme fitness (log ratio)” value was -1.91.
Under A41U C70A U78G C123U stands -3.32.
With C40A G93A A111C, the “polymerase ribozyme fitness (log ratio)” value is -1.04.
For G42A C62U, the “polymerase ribozyme fitness (log ratio)” value is -2.15.
Under C40A G135U stands -2.63.
The same measure for A41U G77A U116C U129C: -3.98; for C40U G110A: -1.7.
Under C40U G110C stands -4.3; under G42A G61U, -2.48; under A41U G65U, -6.
Consider G42A, for which the “polymerase ribozyme fitness (log ratio)” value was -1.69.
Under C40U U55G U78G U92A G110C G122A C124G stands -7.14; under G42A G71U A119U, -2.99; under A41C C62U, -2.99.
Under A41C G48A G51U C80A C99G C115A U116G stands -6.22.
Under C40A G77A A84U C94U U106A stands -2.81; under C40G U55G G71A C85A, -3.12; under C40A G42A C56G C72A A84C, -4.52.
Turning to C40G U92C, the “polymerase ribozyme fitness (log ratio)” value is -1.63.
For C40G U92G, the “polymerase ribozyme fitness (log ratio)” value is -2.95.
On to C40A C64U C80U, for which the “polymerase ribozyme fitness (log ratio)” value is -2.24.
Under C40U C73U A75C stands -0.514; under C40A C49U U59A G60A G117C, -7.16; under G42A G60U G69U, -6.05.
For the variant A41G A83U, the “polymerase ribozyme fitness (log ratio)” value is -0.499.
C40A C114G: the “polymerase ribozyme fitness (log ratio)” value is -3.8.
In the case of C40U G60C G135U, the “polymerase ribozyme fitness (log ratio)” value was -1.79.
Under G42A A43C stands -2.41.
In the case of C40G C72U C102U U116G C124U, the “polymerase ribozyme fitness (log ratio)” value was -4.29.
For the variant A41U G52A C62U G117U, the “polymerase ribozyme fitness (log ratio)” value is -5.18.
As for C40U G44U C49U C53A A84C C86G G113C U125C, the “polymerase ribozyme fitness (log ratio)” value was -3.99.
For the variant A41G C56A, the “polymerase ribozyme fitness (log ratio)” value was -1.81.
Under C40A G61C A118U U130G stands -3.57; under C40A U54C C82G A118U C123U, -0.573.
The same measure for C40G G51A A68G: -6.59; for G42A G45C G69U C123U: -0.482.
The same measure for A41G C56A A75U G117U: -3.99; for C40G C70A: -3.86.
Consider A41G C73G U87C C104U C115A C123G G135A, for which the “polymerase ribozyme fitness (log ratio)” value came out at 0.00105.
Turning to G42A G60A, the “polymerase ribozyme fitness (log ratio)” value was -2.03.
The same measure for C40A C85A: -1.95; for C40U C123U: 0.0584; for C40U C123A: 0.43.
Take C40U G71U C115U U125G U133C: the “polymerase ribozyme fitness (log ratio)” value was -0.893.
Turning to C40A C79G G93C G110A U133A, the “polymerase ribozyme fitness (log ratio)” value is -5.44.
The same measure for C40G C56G C70A: -4.24.
The same measure for C40U G47A: -2.33; for C40G A90C U106C U116G A119G U125G: -3.17; for A41C G51A C114G: -6.23.
Under C40G C101U stands -1.22; under A41G A50C G77A U116C, -3.42.
Regarding A41U G42C A95C, the “polymerase ribozyme fitness (log ratio)” value is -4.1.
Under G42A C70A A84U U92C U96A C102G C124G stands -6.77; under C40A C88A G117A, -3.85.
On to A41C C76U C89U A111C, for which the “polymerase ribozyme fitness (log ratio)” value was -1.22.
For A41C G63U G77C A100U, the “polymerase ribozyme fitness (log ratio)” value was -4.24.
With C40G A43C G69U G120C, the “polymerase ribozyme fitness (log ratio)” value was -0.592.
The same measure for C40G A100C: -2.29; for C40U G71A U81C A95U: -3.
Turning to C40G G52A C62U G128C, the “polymerase ribozyme fitness (log ratio)” value was -3.34.
The same measure for C40G G110U: -1.7.
The same measure for C40U C101U: 0.317; for G42A G71U: -2.41.
The same measure for G42A G63A A83U A121U: -3.11.
On to A41U C124G U129A, for which the “polymerase ribozyme fitness (log ratio)” value is -0.389.
As to C40U C72U, the “polymerase ribozyme fitness (log ratio)” value is -1.69.
As for C40U C72A, the “polymerase ribozyme fitness (log ratio)” value is -0.504.
The same measure for G42A C53U G63U: -3.99; for C40U G45U G127C: -3.96; for C40U G51C G57U C89U G120U: -3.44.
The same measure for A41C G42C U106A: -2.3; for C40U U55C C72U U96C A100C A119U G127U: -4.37; for A41C G42U G71A U81C: -4.72.
Consider A41C C80U C115U, for which the “polymerase ribozyme fitness (log ratio)” value was -3.59.
Under G42A C70A C88G stands -6.71; under G42A A108G A121G, -2.74; under A41U C98U, -2.83.
For the variant A41G C79G C114A, the “polymerase ribozyme fitness (log ratio)” value was -5.3.
On to C40G C64G C85A U112C, for which the “polymerase ribozyme fitness (log ratio)” value was -6.02.
Under C40U C53U A75G C82U stands -0.592; under C40U G113U, -2.53; under C40G U116C, -2.34.
The same measure for A41U G52A U59C A108G C114G U125G: -5.99.
The same measure for A41C G44C: -1.48.
Consider C40G G45A A46C G51C G58A G63C G110A G113U G117C, for which the “polymerase ribozyme fitness (log ratio)” value was -7.24.
C40G C49U A74U U78A: the “polymerase ribozyme fitness (log ratio)” value was -3.07.
The same measure for A41U A68G: -5.2.
Regarding G42A G48C C62A A119U C124A, the “polymerase ribozyme fitness (log ratio)” value was -3.3.
Regarding G39U G113A U132A, the “polymerase ribozyme fitness (log ratio)” value is -2.47.
Under G42A A43U G52A C73U U133C stands -1.65; under C40A C79A, -2.9; under A41G C64U A91U U106A G110A, -5.83.
The same measure for C40A A105G: -4.43.
The same measure for C40U C64U C73G G122A: -5.15; for A41G A91U: -1.63.
In the case of C40G G57C, the “polymerase ribozyme fitness (log ratio)” value is -1.56.
Under G42A G117A stands -2.65; under A41G G113A C124A, -0.366.
As to A41U G45A U55C G71A, the “polymerase ribozyme fitness (log ratio)” value is -3.
Under C40G G57U A91C stands -3.44.
Under C40U G52C G117C stands -6.09; under C40U G52U U96G A105U G120A G128C U131G, -6.51.
For A41C G113C, the “polymerase ribozyme fitness (log ratio)” value is -2.86.
C40A C56U C72G: the “polymerase ribozyme fitness (log ratio)” value is -3.26.
As for A41U G57U C86G C123U, the “polymerase ribozyme fitness (log ratio)” value is -4.13.
On to A41G G61C A95C C101U U106A, for which the “polymerase ribozyme fitness (log ratio)” value was -3.41.
In the case of C40G C88U G122A, the “polymerase ribozyme fitness (log ratio)” value is -2.03.
With A41C A46C C114U U131C, the “polymerase ribozyme fitness (log ratio)” value was -3.66.
Under G39U G110C A121C stands -4.8; under G42A C64U U109A, -6.32; under A41U G61A, -1.07.
A41U A43U G69C G77C G93A C124G U131A: the “polymerase ribozyme fitness (log ratio)” value was -1.81.
C40U U87A: the “polymerase ribozyme fitness (log ratio)” value is -0.311.
